Consider one molecule from US20120134979A1, “METHODS AND COMPOSITIONS FOR THE TREATMENT OF SICKLE CELL DISEASE” (priority 2010, published 2012).

Holding throughout (type): in vivo, mouse
In assay [1] the test system is SCD Tg mice. As to the kind of experiment: Urine measurements (proteinuria, osmolality) in SCD Tg mice after chronic PEG-ADA. The procedure: (§1) Chronic PEG-ADA therapy. SCD transgenic mice, at eight weeks of age, were divided to two groups. One group was injected with 2.5 U PEG-ADA weekly for 8 weeks. This dosing protocol was designated SCD with PEG-ADA treatment regimen (SCD+PEG-ADA). Another group was injected with normal saline for 8 weeks; it was designated as SCD without PEG-ADA treatment regimen (SCD). Wild-type mice (C57Bl/6) used as control were injected with saline or PEG-ADA as with the SCD groups.
Mouse urine collection and measurements. Urine was collected using a metabolic cage (Bioseb, France) for proteinuria and creatinine analysis using a commercially available kit (Exocell, Philadelphia) as described Zhou, et al. Angiotensin receptor agonistic autoantibodies induce pre-eclampsia in pregnant mice. Nat. Med. 2008; 14(8):855-862). For urine osmolality analysis, mice were deprived of water for 24 hours, then urine was collected on Parafilm, transferred to 1.5 ml tube, the urine was diluted 10 times with distilled water and measured with vapor pressure osmometer (Wescor, Logan, Utah).

Assay [2] deals with SCD Tg mice. As to the kind of experiment: Hematological parameters of SCD Tg mice treated with PEG-ADA or PSB1115 for 8 weeks. The note with it: 8 weeks treatment.
Excerpt: Mice. Berkley sickle cell disease transgenic mice (SCD Tg mice), expressing exclusively human sickle hemoglobin (HbS) were purchased from The Jackson Laboratory Inc (Paszty, C. Transgenic and gene knock-out mouse models of sickle cell anemia and the thalassemias. Curr Opin Hematol 4, 88-93, 1997). C57BL/6 mice used as controls were purchased from Harlan Laboratories. Adenosine receptor deficient mice were obtained from the following sources: A1R-deficient mice (Jurgen Schnermann, NIDDK, NIH); A2AR-deficient mice (Jiang-Fan Chen, Boston University School of Medicine); A2BR-deficient mice (Michael R. Blackburn, University of Texas-Houston Medical School); and A3R-deficient mice (Marlene Jacobson, Merck Research Laboratories). All receptor deficient mice were backcrossed at least 10 generations onto the C57Blk/6J background and were genotyped according to established protocols (Sun, D., et al. Mediation of tubuloglomerular feedback by adenosine: evidence from mice lacking adenosine receptors. Proc Natl Acad Sci USA 98, 9983-9988, 2001; Nemeth, Z. H., et al. Adenosine receptor activation ameliorates type 1 diabetes. FASEB J, 2007; Chen, J. F., et al. A2A adenosine receptor deficiency attenuates brain injury induced by transient focal ischemia in mice. J Neurosci 19, 9192-9200, 1999; Salvatore, C. A., et al. Disruption of the A3 adenosine receptor gene in mice and its effect on stimulated inflammatory cells. The Journal of Biological Chemistry 275, 4429-4434, 2000). Animals were maintained in accordance with institutional and NIH guidelines under research protocols that were reviewed and approved by the University of Texas Health Science Center at Houston Animal Welfare Committee.
as §1
Chronic treatment with A2BR antagonist, PSB1115. SCD transgenic mice or wild type mice (eight weeks of age) were divided to two groups, one groups was injected with 200 μg of PSB1115 (an A2B receptor antagonist: obtained from Tocris Bioscience, St. Louis, Mo.) in PBS, daily for 8 weeks. One of groups was injected with saline.
Morphological study of erythrocytes and quantification of reticulocytes by flow cytometry. Blood smears were stained using the WG16-500 ml kit (Sigma-Aldrich) for sickled cells and observed using 100× oil immersion objective of Olympus BX60 microscope. […] The percentages of sickled cells among the counted cells were calculated. Reticulocyte was labeled by Retic-COUNT Reagent (Becton Dickinson) and quantified by flow cytometry (Perumbeti, et al., A novel human gamma-globin gene vector for genetic correction of sickle cell anemia in a humanized sickle mouse model: critical determinants for successful correction. Blood. 2009; 114(6):1174-1185).

The subject of assay [3] is SCD Tg mice. As to the kind of experiment: Lung inflammation (neutrophils, cytokines) after hypoxia/reoxygenation in SCD Tg mice. The note with it: hypoxia-reoxygenation. The text has this:
Hypoxia/reoxygenation of SCD Tg mice. SCD Tg mice were subjected to two-hour hypoxic condition with 8% oxygen. After hypoxia, mice were returned to normoxic conditions for four hours Wallace, et al. NKT cells mediate pulmonary inflammation and dysfunction in murine sickle cell disease through production of IFN-gamma and CXCR3 chemokines. Blood. 2009; 114(3):667-676). At the end of the experiments, mice were sacrificed and blood collected for adenosine measurement, sickling and hemolytic analysis.
Immunohistochemistry to assess neutrophil infiltration in the lung. To quantify neutrophils, a specific neutrophil antibody, was used as described (Zhou, et al., Enhanced airway inflammation and remodeling in adenosine deaminase-deficient mice lacking the A2B adenosine receptor. J. Immunol. 2009; 182(12):8037-8046). Rehydrated slides were quenched with 3% hydrogen peroxide, Ag retrieval performed (Dako), and endogenous avidin and biotin blocked with a Biotin Blocking System (Dako). […] Quantification of distal airway neutrophils-positive cells was performed on 20 fields/mouse lung section at ×20 using software analysis (Image Pro Plus 4.0; Media Cybernetics, Bethesda, Md., USA).
ELISA for INF-γ, IL-6, IL-1β and GM-CSF measurement in the mouse lung homongenates. INF-γ, IL-6, IL-1β and GM-CSF levels in lung homogenates were determined using ELISA kits (QUANGI).

In assay [4] the test system is SCD Tg mice. The experiment in a line: Hemolytic analysis of plasma of SCD Tg mice after chronic treatment. The note with it: chronic PEG-ADA treatment. The protocol:
as §1
Hemolytic analysis. The hemoglobin, haptoglobin and total bilirubin in mouse plasma were quantified by ELISA kits following instructions provided by the vendor (BioAssay Systems, Hayword, Calif.).

B1: PEG-ADA: polyethylene glycol-modified adenosine deaminase, a drug used to lower adenosine concentrations in ADA-deficient humans (protein, UniProt P56658 2-363, looked up)
Adenosine deaminase: AQTPAFNKPKVELHVHLDGAIKPETILYYGRKRGIALPADTPEELQNIIGMDKPLSLPEFLAKFDYYMPAIAGCREAVKRIAYEFVEMKAKDGVVYVEVRYSPHLLANSKVEPIPWNQAEGDLTPDEVVSLVNQGLQEGERDFGVKVRSILCCMRHQPSWSSEVVELCKKYREQTVVAIDLAGDETIEGSSLFPGHVKAYAEAVKSGVHRTVHAGEVGSANVVKEAVDTLKTERLGHGYHTLEDATLYNRLRQENMHFEVCPWSSYLTGAWKPDTEHPVVRFKNDQVNYSLNTDDPLIFKSTLDTDYQMTKNEMGFTEEEFKRLNINAAKSSFLPEDEKKELLDLLYKAYGMPSPASAEQCL
modifications: PEGylated
Take B1: in the assay with SCD Tg mice [1], the proteinuria result is “decreased” and the urine osmolality result is on record as “increased”. In the assay on SCD Tg mice [2], the HCT is 30.15 ± 8.90 %, the Hb was 7.71 ± 2.64 g/dL, the MCH is on record as 12.38 ± 2.85 pg and the MCHC came to 25.33 ± 1.21 g/dL. In the assay on SCD Tg mice [2], this molecule showed an MCV of 48.58 ± 8.79 fL, an RDW of 28.03 ± 1.14 %, a Reticulocyte of 43 ± 4.52 % and a Sickle cell of 10.35 ± 0.39 %. The same molecule came in with a WBC with SCD Tg mice [2] of 15.00 ± 2.79 k/μl. The RBC in the assay on SCD Tg mice [2] (mean ± SEM) worked out at 6.15 ± 1.01 M/μl. Besides, the “neutrophil infiltration in the lungs” value in the assay on SCD Tg mice [3] (image quantification) is reported as “significantly lowered”. The “proinflammatory cytokines in the lungs (INF-γ, IL-6, IL-1β and GM-CSF)” value in the assay with SCD Tg mice [3] (lung homogenates) was “significantly decreased”. In the assay with SCD Tg mice [4], the “plasma Hb” value was “decreased”, the plasma haptoglobin result is “increased” and the total bilirubin entry was “decreased”.
